In the DeepSol protein solubility set:

Assay: soluble on expression in E. coli; label from the status in PepcDB or PDB records

Sequence | soluble on expression in E. coli
MAHHHHHHMGVPTMERSHGRRSPDEVRYPHIVLNVLGQSYSSACIEVGSTRVVCAVHHPQQLIDEYRGSRGRVACTVRRSSRAQKHELAFRADVTPEKDLALALEGVVEQAVVLEKIPQLLVEVAVEILAEDGGLWDAIATGVCAALASGGFEMYDTFSACGAALLPDGSIVTDPSATEWNTAKATAVTCAMLNSGNMCFTAQRGSCEPTTALDLVMAALKGTLARKNVISSQLCEQFAF | not soluble
MAHHHHHHMHFSLQKKNICTNSTKCVNVHPYLFPPLGMVPKRVRYDVHRGGEQHTDITNLLHTFKRFKMVKTSSYRRKSRSSPNGQGQKAKIGIKRLSAEYVKTGQLLVKQRKIIAFNLERKTRRRNFKYYPGEHVKVTKNTSLVALTNGRVKYTFHTTQNVLIVNVLPEEIDELREEDLYRYRTEHVRSLEENRSLVYLRMKHVVSFPPSKETQFRKPPLRPQFLARYDIEDNPTLREVPVLYHKPK | not soluble
MAHHHHHHMHLDEEYGNRSSSVSCDSSDAASAHSSSSDSASSAGGRQQRQRGNGSGGTETASLLSLPTASHANHAGCSVCGSATSLASRVSLLSTLSQHSAASYLSFISVLRPSITAGSAAGGTGAGGSADGDGAAGAGQQMHESEDGNTNLPLILLEQLALGLHRFMEAYPAELLDRYGLRSVSWSSIARMFATVEKSLVNTTTTAGAAAGAAAAAAPRQANHFPNDQEPPQPLFNLAQDIRYNKGMGYECLGLLFAKVVAPLLDPASSRAIASTSWSPPQQHQLRRSTGEATGTEDDDGSGGGARSDGGGTQEEFFANAAAVAATVGRAVLTIDDDPATRASVEAALSRCLTAYETVAPQVVDMNLPTILRLAARTAATSAGSTTSLRASASPSSLSIVLVDFVRDITARLGRGNDLPHLVDALLQRGDFAANASATAAASAVVDGSGDKASTIRSLRAVFSLPPVRQAVMEAAGTSLDPESLLRRLSGVAAELEEDNKSSSSSSSAQDEKQVELSSTARSCRKHDDARVQRMLLALELMEALLAGVTPTCVSASAVLEHTTQLELLLSSSFMAAVEELKGVCGEALDDRRALMIQHMYTIRQCRAVTILCLQDLGTQQVHDYLRMLEDALWQLTSHVGNLVGSLTLAELQPLLRPHPARYGGSEVLAPSPSALEQLQVQLLPSSLILQRPVASARSDRRPGNSRRARRGAP | not soluble
MAHHHHHHMHPFYTIRYPPSKGSNESQPILVTDTAIEPLFFCIVYSIEFQCPVQTTESRTANSRSSSFPFGGRASGSGGKREANELHVCPVENTSKLLGNVTYVSCLDHNPTLLASLQTAVDAARAIPIPEDEQKVPLQLCVRLLHKQTRWLWEESRPLVEWTFKIVKTRGLSYAAVPEASSGASARNTNVEFVHASGPAQIREVLQFILKHSYEAIDLNTFSDFKSGELVFEVFVDQAR | soluble
MAHHHHHHMIGGQHTKERLSERLQDCQNQPKNRGYLPGTKLLTGGYSTRTLQGNWAEERMDAGYYDGEAVFPTHLARAWTTDYRTMTSNVSGSLTRPVFDQATLMDIVDHKHRSYPAHQPYLDQQRDEVMQERFKTTTRTSYINPEERKREAQLHIPPVIGRTPTAQARAVILRIQRQLLLSRHGESAFPGNILRQIRLTLQRNDTAGEGMLTVEEAEKGFEEAFLVVSRPECVALVRAFDLKEDGTISIAKIMEELRGELRDRRYSLVEKVYEMLKGFSPDGIVRLQRLAELVDVDSMNAVMNGKVTSSLAHDAFVEQWDLPIDSYISFENFLLYFMDASFEIESDQEFEVFMRNVWHLSGGNGKSMNTSCRRVRVVHRNGRMSTQEVKNDLCIKDSDPNLQERIIANLASWGIKDVARVEMLPRNL | not soluble
MAHHHHHHMIMKKLIENNVIKLNYENFLTKYKLNSGNEQKDLSDEELYEHFIINTFNYSKPLGCLPPNISNIKEYYLDGINIFEVINYVNISERMYKFENITEEDDKENEDDSKEIFSHSEPDEKHDCEIKSRKNNKNSKISNNNKKDGNNIKSNKYRRFYRFLLYDGKSFIYAYEQEYNEIFTYLESNKYIYPKIILYNKPLIRRGAILLKKNQVIILFKGCIVSGNDTEDNEIEDFPIISESNNINSGVHQNIHDDLYTTRNTYDNKNMTDDSHNLIRKFYYADKGMEKEEYKTYYENTNNCGVLSNTNRSNEYYSRSSMHNNNNYSFNEYAKHNYKYDQNHVKKNIEYYYNKDKNCYITSIDYNNNNNNNNNSINNSNNEYTGNNYNNNNKGNHYYYHNIHNNHMHDTHNSKNYIGSNRYNTDKASYNYYNNHYKNKQHYIDPQRNNYYTHGINHDDYSKENYLNAFEYKNHNSYKEPLRNYSNDHPRNSYNKNKYNIFNENKRNSSSKNNRNSSSKNNRNSSNKNNRNSSKEYFKRNSNKFDNAYDNTYHDNNTRINHHSDFSRKNNDGFYRNNDNNYNNETYVKNHFSNEAKYNAGYQRLSDNLENRNRMNCENNNNYYSTYGHSDYNVNYNNKNNRNIPLSNLNEKNNHIPSNNYYTENYLPEKEGNRNILTNQINNYSINSVNNNFEQINPSTCNYNKNNVFPYNKEDDKNKFVEMKNVEEEYHNDNQERARKNSENSKKLIDLTEGFFSSEFFHKSYECNDVNKNSDIIILDD | soluble
MAHHHHHHMKAKGFHHSTPNFNTAEFTDAADPSDLANDIVTESAVAVDFARDIYGPWLVMTDDLQGELFVDHDGFVYYRPANGLGYGIGKLQVLDAGATGTAFTCQLESYSYQPTNTVVPQYGLTFDITGMVKRVTAKSSDYKTFSLVGVWRRSNRNKGAPALLPSQRSSSDAAVEGASAALSPESLDNQGALDGPGEKTSGQFNAAKLSPWDPSTAARPFAPNAELQSVFTQVFPERLRAESHVQRAEASRESPAARHLAGCAGKPSLMHLDLEQYATGKIPGIYYIPDYISVAEEAQILTFIHGTPEELKSKLTKRTCQEWGCTMCESCQKSFVSDANMPQWVQEFIDMQVYDGLFTPTTFPNSVRIHEYHQGDGIGPHCDGPIYVPMVTVLSLASSCLMSFYPKQPLYENHPMDHYNDTFKFGEGDIGRRVPLQSVVMEPRSLLIFSGEGYYHYPHGISDKAEEVLTPEVVGEVVNRRFLRDPHVQSIPRTYRASITTRNLMTRCSHQPARAEYAMKRAWYLYNHLPVPSELFTPAPQLPQQQQQPAGVSAGGSSGSRESSDASATRSPQKRVESFFPACAPPGTVAVDTELREAIYEMRARQEDLRNNVEELKQLVALSIPVQTTFQTETATILNHLSSSVLQLESKVDDLLEEVESAKRKSSTDT | not soluble
MAHHHHHHMKCEVDRPVTQNTERNGSEGNVAKNYMTHLYQFQNNEMKKIDASYFENKYLGLFFGASWCRYCVTFIQNINFFKKNFPFIEIIYIPFDKTYNDYVAFLKATDFYSLPFDNYLYICKKFNIKNLPSFMIIAPNNNVLVKDAVQLIKTDTYVNNFKSLVKNYTVHPSHFKIGNRFFDLFCA | soluble
MAHHHHHHMKDGDWERRNRLKVYEGIYHVFIRDFKRGSELLLDSISTFASSELMDFNEFILITVVASLPVLSRSELKQQILDSPEVRSANIKDVFHLITVIYNCRYKEVFSALDTVCQHLRGIVYLSQHVNYFFREVRVLVFTQFLDSYSSVTLNSMSAAFGIPPPVLDSMLGTLISNERIACKMDRVSDSITTYRGDTTNFDYHRIVKNGDLLLNRIQKLSRLAEM | not soluble
MAHHHHHHMKKAKGSMKRLREGAENGTGGRNSSMKRQKGSTTGALSFAITNNTVTLERKARRQPKVAERCEDDDDEEDVELSKAVQAQTLSFLQHLNSKSSKTFWELRDVAQGKLSAASATTATSSSSQLPSSSRTKAAKGNAKGAKKLADDGEELWRVGGPYISGDQADDTDESERECGRTSDSELQSSTSSSEPSWVTDSSEEEDGGGSDDEAESAPVAAGATSRRSAAEPPKRGGGGGRLFQGGGDGVWDED | soluble
MAHHHHHHMKQNGGRETPDGVRYPHIALDVLGQCHSSACVELGNTRVICAVHHPQQLVDEYRGSRGRVACTVRRSASAGSHAAGSAQPSVVTPEKDMSLALEGVAEEVVILEKIPQLLVEVVVEILAEDGGVWDAVATSMSAALVSGGFEMYDLFSACGSALLSDGAVVLDPDAAEESNAQASALVCLMLNSGDICYARHQGSCEPGTVLELVSSAMKGCLSRKSAITTQLINHPIL | not soluble
